Several values for one entry are separate records, joined by “and”; a condition that tells them apart may be missing. Equal entries are not always repeated.
B1: TRIB3 (tribbles pseudokinase 3), purified protein (natural protein)
chain: MRATPLAAPAGSLSRKKRLELDDNLDTERPVQKRARSGPQPRLPPCLLPLSPPTAPDRATAVATASRLGPYVLLEPEEGGRAYQALHCPTGTEYTCKVYPVQEALAVLEPYARLPPHKHVARPTEVLAGTQLLYAFFTRTHGDMHSLVRSRHRIPEPEAAVLFRQMATALAHCHQHGLVLRDLKLCRFVFADRERKKLVLENLEDSCVLTGPDDSLWDKHACPAYVGPEILSSRASYSGKAADVWSLGVALFTMLAGHYPFQDSEPVLLFGKIRRGAYALPAGLSAPARCLVRCLLRREPAERLTATGILLHPWLRQDPMPLAPTRSHLWEAAQVVPDGLGLDEAREEEGDREVVLYG

How the values were obtained:
[1] = target: T1, SAH-JGZ4, stapled JGZ peptide (UniProt P00533, two units of nonnatural alkenyl amino acids S5 at the relative positions i and i + 4, cross-linked by ring-closing olefin metathesis); experiment: SPR
[2] = target: T1, SAH-JGZ4, stapled JGZ peptide; experiment: FP
[3] = target: T1, SAH-JGZ4, stapled JGZ peptide; experiment: SPR; remark: listed apart in the source
SAH-JGZ2 = experiment: SPR
JGZ-M12 = experiment: SPR
JGZ-M10 = experiment: SPR
JGZ-M2 = experiment: SPR
JGZ-M11 = experiment: SPR
JGZ-M13 = experiment: SPR
JGZ-M6 = experiment: SPR
JGZ-M1 = experiment: SPR
JGZ-M4 = experiment: SPR
JGZ-M15 = experiment: SPR
[4] = target: B1; experiment: SPR

Kd [1]	Kd [2]	Kd [3]	Kd (SAH-JGZ2)	Kd (JGZ-M12)	Kd (JGZ-M10)	Kd (JGZ-M2)	Kd (JGZ-M11)	Kd (JGZ-M13)	Kd (JGZ-M6)	Kd (JGZ-M1)	Kd (JGZ-M4)	Kd (JGZ-M15)	Kd [4]	Binder
137 nM	55.4 nM	84.1 nM and 66.1 nM	235 nM	402 nM	337 nM	424 nM	892 nM	796 nM	1210 nM	642 nM	2470 nM	1160 nM		B1
													1060 nM	NQALLRIIKETEFK [JMA2 peptide with the Leu-to-Ile substitution]
													5370 nM	NQALLRIVKETEFK [JMA2 peptide with the Leu-to-Val substitution]

Source: article PMC7374170 (2020)
